B7: human CD8 on the surface of human CD8 T cells (receptor)
chain 1: not shown
chain 2: LQQTPAYIKVQTNKMVMLSCEAKISLSNMRIYWLRQRQAPSSDSHHEFLALWDSAKGTIHGEEVEQEKIAVFRDASRFILNLTSVKPEDSGIYFCMIVGSPELTFGKGTQLSVVDFLPTTAQPTKKSTLKKRVCRLPRPETQKGPLCSPITLGLLVAGVLVLLVSLGVAIHLCCRRRRARLRFMKQFYK
notes: whole, on cells

Assay [1] addresses T1, human CD45 receptor on the surface of human T cells (human, UniProt P08575 26-1306).
T1 construct: whole, on cells; also called cellular CD45; leukocyte common antigen
T1 sequence (looked up): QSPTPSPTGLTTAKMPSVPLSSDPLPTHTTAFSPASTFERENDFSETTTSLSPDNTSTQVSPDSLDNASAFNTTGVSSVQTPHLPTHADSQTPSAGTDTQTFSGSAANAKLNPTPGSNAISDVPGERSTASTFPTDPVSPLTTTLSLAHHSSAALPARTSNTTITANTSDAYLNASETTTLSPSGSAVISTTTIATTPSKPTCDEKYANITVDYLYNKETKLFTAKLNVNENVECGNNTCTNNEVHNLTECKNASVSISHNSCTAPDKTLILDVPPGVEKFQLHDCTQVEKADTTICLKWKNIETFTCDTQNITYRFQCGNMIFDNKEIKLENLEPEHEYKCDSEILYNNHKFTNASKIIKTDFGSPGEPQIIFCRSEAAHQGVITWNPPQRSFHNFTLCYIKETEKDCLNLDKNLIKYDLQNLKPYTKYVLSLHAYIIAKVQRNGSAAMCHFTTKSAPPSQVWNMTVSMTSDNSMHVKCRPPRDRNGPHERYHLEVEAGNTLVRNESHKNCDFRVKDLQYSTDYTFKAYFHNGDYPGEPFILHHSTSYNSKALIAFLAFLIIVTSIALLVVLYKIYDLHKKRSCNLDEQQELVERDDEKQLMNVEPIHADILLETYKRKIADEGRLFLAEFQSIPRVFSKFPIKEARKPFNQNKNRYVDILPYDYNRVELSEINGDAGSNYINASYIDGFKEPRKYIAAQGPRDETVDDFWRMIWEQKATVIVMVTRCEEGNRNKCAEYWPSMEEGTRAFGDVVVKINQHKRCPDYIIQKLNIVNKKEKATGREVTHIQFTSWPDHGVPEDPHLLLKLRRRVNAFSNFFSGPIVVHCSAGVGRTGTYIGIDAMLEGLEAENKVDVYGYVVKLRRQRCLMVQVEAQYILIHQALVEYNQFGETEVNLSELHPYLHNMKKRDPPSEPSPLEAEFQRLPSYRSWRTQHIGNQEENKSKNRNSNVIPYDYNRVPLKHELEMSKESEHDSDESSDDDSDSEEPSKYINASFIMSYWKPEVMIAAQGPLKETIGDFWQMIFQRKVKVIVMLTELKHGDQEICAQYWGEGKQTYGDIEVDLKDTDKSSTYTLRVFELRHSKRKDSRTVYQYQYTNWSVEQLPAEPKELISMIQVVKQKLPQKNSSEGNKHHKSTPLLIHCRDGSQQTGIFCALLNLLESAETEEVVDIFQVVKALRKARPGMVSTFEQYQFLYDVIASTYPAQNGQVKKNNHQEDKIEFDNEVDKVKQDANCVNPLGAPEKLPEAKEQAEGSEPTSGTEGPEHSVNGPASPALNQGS
The assay is described as follows: apparent KD (KD,app); flow cytometry titration of IgG on activated primary human CD8 T cells, 4-parameter fit. The source says:
For comparison with previous results we evaluated these antibodies alongside chBC8, hBC8(23), and a non-binding variant hBC8-null. The humanized BC8 antibody consists of variable domains containing CDR regions grafted from BC8, and the hBC8-null variant contains an SGGGS substitution in the heavy-chain CDR3, which ablates binding to CD45 (FIG. 10A). […] We use the term apparent dissociation constant (K_{D,app}) to distinguish from a true equilibrium dissociation constant: the bivalent nature of the IgG antibody introduces an avidity effect that complicates the calculation of a true equilibrium dissociation constant for these type of assays. Nevertheless, the K_{D,app} is a useful metric for scoring relative affinities of the antibodies to the cellular receptor in its native context.
Cell binding assay. Primary human CD8 T-cells were activated with CD3/CD28 beads and 10 ng/mL IL-2 as described in Example 1. Following activation and an overnight rest in full RPMI media (see Example 1 methods) the T-cells were incubated with seven serial five-fold dilutions of antibodies spanning 500 nM to 6.4 μM, or with media only control at 4° C. for 1 hr. Cells were washed with MACS buffer (PBS, 2% FBS, 1 mM EDTA) three times, and antibody binding was detected using a PE-conjugated anti-human IgG-Fc antibody (BioLegend, cat. no. HP6017) for 20 min. at 4° C. Cells were washed two times with MACS buffer, and the resuspended in MACS buffer with live-dead stain (7-AAD). Antibody binding was quantified using the median fluorescence intensity (MFI) of the live cell population (via 7-AAD exclusion) within the PE signal. Curves were generated by plotting mean fluorescent units against antibody concentration, and apparent dissociation constants (K_{D,app}) were determined by non-linear regression using a four-parameter logistic equation using GraphPad Prism (GraphPad Software, Inc.).
(In general: A flow cytometer gives signals particle by particle.)

The target in assay [2] is B7. Nature of the assay: flow cytometry titration on total CD3 human T cells (FIG. 17D).
In assay [3] the target is T1, human CD45 receptor on the surface of …. The assay is described as follows: pulse incubation of human CD3 T cells, anti-human IgG staining by flow cytometry (FIG. 23). The method, then:
We evaluated the ability of IL12-TFs to support the loading of IL-12 onto T cells. Briefly, human total CD3 T cells were activated with CD3/CD28 Dynabeads for three days. Beads were removed and cells were incubated with IL-2 for 1 day prior to pulse incubation with h9.4Fab-scIL-12p70 diluted in full medium (RPMI 1640 with 10% FBS). Cells were incubated in biological duplicate with full media (Mock condition) or h9.4Fab-scIL-12p70 for 1 hr at 37° C. and then washed three times will full media (RPMI 1640 with 10% FBS) to remove unbound IL12-TF. Cells were then plated in full medium at a cell density of approximately 200,000 cells/mL and incubated at 37° C., 5% CO2. Surface tethered IL-12 was detected using flow cytometry by immunostaining with a polyclonal anti-human IgG antibody. Cells were counted using CountBright Absolute flow cytometry counting beads. In each case cells were analyzed on a FACSCelesta using Diva Software; data was analyzed using Cytobank.

For a further assay, the target named is T2, chOKT8-IL15/sushi Fab (human, UniProt Q13261 31-95).
T2 construct: Anti-human CD8 Fab IFM; also called chOKT8Fab-IL15/sushi; chOKT8Fab-Il15/sushi
The assay is described as follows: flow cytometry titration on total CD3 human T cells (FIG. 17D).

T2 sequence (Q13261 31-95): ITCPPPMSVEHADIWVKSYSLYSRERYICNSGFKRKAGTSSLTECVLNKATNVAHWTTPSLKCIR

B1: ch9.4 chimeric IgG anti-CD45 antibody (antibody, V domains shown)
VH: QVQLQQLGAELARPGASVKMSCKASGYTFTSYSIQWVKQRPGQGLEWIGYINPSSGYIKYNQHFRDRATLTADRSSSTAYMQLSSLTSEDSAVYYCARGNSGSFDYWGQGTTLTVSS
VL: DIVMTQAAPSVPVTPGESLSISCRSSKSLLHSSGITYLYWFLQRPGQSPQLLIYRMSNLASGVPDRFSGSGSGTAFTLRISRVEAEDVGVYYCMQHLEYPFTFGGGTKLEIK
notes: Chimeric IgG: mouse variable domains, human constant kappa domain and human IgG4 with S228P
With B1, the Kd in assay [1] was 0.84 nM.

B2: chBC8 chimeric IgG anti-CD45 antibody (IgG4-S228P) (antibody, V domains shown)
VH: QVQLVESGGGLVQPGGSLKLSCAASGFDFSRYWMSWVRQAPGKGLEWIGEINPTSSTINFTPSLKDKVFISRDNAKNTLYLQMSKVRSEDTALYYCARGNYYRYGDAMDYWGQGTSVTVSS
VL: DIVLTQSPASLAVSLGQRATISCRASKSVSTSGYSYLHWYQQKPGQPPKLLIYLASNLESGVPARFSGSGSGTDFTLNIHPVEEEDAATYYCQHSRELPFTFGSGTKLEIKR
notes: also called chBC8 IgG; chimeric BC8
On to B2, for which the Kd in assay [1] stood at 6.68 nM.

B3: chOKT8Fab (anti-human CD8 clone OKT8 as Fab fragment) (Fab, V domains shown)
VH: QVQLQQSGAELVKPGASVKLSCTASGFNIKDTYIHFVRQRPEQGLEWIGRIDPANDNTLYASKFQGKATITADTSSNTAYMHLSSLTSGDTAVYYCGRGYGYYVFDHWGQGTTLTVSS
VL: DVQINQSPSFLAASPGETITINCRTSRSISQYLAWYQEKPGKTNKLLIYSGSTLQSGIPSRFSGSGSGTDFTLTISGLEPEDFAMYYCQQHNENPLTFGAGTKLELKR
For B3, in assay [2], the binding result is given as “binds”.

B4: hBC8(23) humanized BC8 anti-CD45 antibody (IgG form) (antibody, V domains shown)
VH: EVQLVESGGGLVQPGGSLRLSCAASGFDFSRYWMSWVRQAPGKGLEWIGEINPTSSTINFADSVKGRFTISRDNAKNSLYLQMNSVRDEDTAVYYCARGNYYRYGDAMDYWGQGTLVTVSS
VL: EIVLTQSPATLSLSLGERATISCRASKSVSTSGYSYLHWYQQKPGQAPKLLIYLASNRATGVPARFSGSGPGTDFTLTISSLEPEDFATYYCQHSRELPFTFGQGTKLEIK
notes: Tested as an antibody detected with anti-human IgG-Fc; its constant regions are not spelled out for the humanized antibody
Turning to B4, the Kd in assay [1] amounted to 7.8 nM.

B5: ch4B2 chimeric IgG anti-CD45 antibody (antibody, V domains shown)
VH: QVQLQQSGAELARPGASVKMSCKASGYTFTSYTMQWVKQRPGQGLEWIGYINPSSGYIKYNQKFKDKVTLTADKSSTTAYMQLSRLTSEDSAVYYCARRGSYFFDFWGQGTSVTVSS
VL: DIVITQDELSNPVTSGESVSISCRSSKSLLYKDGKTYLNWFLQRPGQSPQLLIYLMSTRASGVSDRFSGSGSGTDFTLEISRVKAEDVGVYYCQQLVEYPFTFGGGTKLEVK
notes: as for B1
On to B5, for which, in assay [1], the Kd was determined as 0.44 nM.

B6: h9.4Fab-scIL-12p70 (other)
heavy: EVQLVQSGAEVKKPGASVKVSCKASGYTFTSYSIQWVRQAPGQRLEWIGYINPSSGYIKYNQHFRGRATLTADRSASTAYMELSSLRSEDTAVYYCARGNSGSFDYWGQGTLVTVSSASTKGPSVFPLAPSSKSTSGGTAALGCLVKDYFPEPVTVSWNSGALTSGVHTFPAVLQSSGLYSLSSVVTVPSSSLGTQTYICNVNHKPSNTKVDKKVEPKSC
light: DIVMTQSPLSLPVTPGEPASISCRSSQSLLHSSGITYLYWFLQKPGQSPQLLIYRMSNLASGVPDRFSGSGSGTDFTLKISRVEAEDVGVYYCMQHLEYPFTFGQGTKLEIKRTVAAPSVFIFPPSDEQLKSGTASVVCLLNNFYPREAKVQWKVDNALQSGNSQESVTEQDSKDSTYSLSSTLTLSKADYEKHKVYACEVTHQGLSSPVTKSFNRGECGGGGSGGGGSGGGGSIWELKKDVYVVELDWYPDAPGEMVVLTCDTPEEDGITWTLDQSSEVLGSGKTLTIQVKEFGDAGQYTCHKGGEVLSHSLLLLHKKEDGIWSTDILKDQKEPKNKTFLRCEAKNYSGRFTCWWLTTISTDLTFSVKSSRGSSDPQGVTCGAATLSAERVRGDNKEYEYSVECQEDSACPAAEESLPIEVMVDAVHKLKYENYTSSFFIRDIIKPDPPKNLQLKPLKNSRQVEVSWEYPDTWSTPHSYFSLTFCVQVQGKSKREKKDRVFTDKTSATVICRKNASISVRAQDRYYSSSWSEWASVPCSGGGSGGGSGGGSGGGSRNLPVATPDPGMFPCLHHSQNLLRAVSNMLQKARQTLEFYPCTSEEIDHEDITKDKTSTVEACLPLELTKNESCLNSRETSFITNGSCLASRKTSFMMALCLSSIYEDLKMYQVEFKTMNAKLLMDPKRQIFLDQNMLAVIDELMQALNFNSETVPQKSSLEEPDFYKTKIKLCILLHAFRIRAVTIDRVMSYLNAS
notes: Anti-human CD45 Fab fused to single-chain human IL-12p70; also called anti-CD45-IL12-TF; IL12-TF
Turning to B6, the binding result in assay [3] is “binds”.

Regarding B7, in the assay with chOKT8-IL15/sushi Fab, the binding result is recorded as “binds”.

(Values after patent publication US20200330514A1 (TORQUE THERAPEUTICS, published 2020).)
